Measurements as given in patent publication US20210130494A1 (ALETA BIOTHERAPEUTICS, published 2021).

Assays:
[1] = molecular target: T1, CD20 on stable transfectant line 293-CD20 (UniProt P11836 1-297); experiment: flow cytometry, 293-CD20 cells, 200 µl fusion protein, FMC63-PE
T1 construct: whole, on cells; also called CD20 expressing 293 cells
T1 sequence (looked up): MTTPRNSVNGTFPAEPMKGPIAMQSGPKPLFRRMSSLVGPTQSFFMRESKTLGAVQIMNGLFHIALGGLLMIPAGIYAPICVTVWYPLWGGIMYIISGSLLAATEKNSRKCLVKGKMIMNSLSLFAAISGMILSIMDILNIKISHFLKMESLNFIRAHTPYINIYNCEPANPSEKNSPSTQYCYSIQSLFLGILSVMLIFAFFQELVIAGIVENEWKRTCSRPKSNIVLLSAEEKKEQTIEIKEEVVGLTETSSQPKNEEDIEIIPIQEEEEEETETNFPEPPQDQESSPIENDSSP

[2] = molecular target: T1, CD20 on stable transfectant line …; experiment: flow cytometry, 293-CD20 cells, FMC63-PE or anti-HIS-PE
[3] = molecular target: T2, FMC63 CAR-Flag (construct #140) on transfected 293T cells; experiment: flow cytometry, 293T cells transfected with #140, supernatant or 5 ug/ml purified #151/#152, anti-mouse Fc gamma-PE
T2 construct: FMC63 VL-VH-Flag-CD28 linker/transmembrane/ICD-4-1BB ICD-CD3z ICD; also called anti-CD19 FMC63 CAR; CAR19
T2 sequence (chain, as listed by the source limits assumed): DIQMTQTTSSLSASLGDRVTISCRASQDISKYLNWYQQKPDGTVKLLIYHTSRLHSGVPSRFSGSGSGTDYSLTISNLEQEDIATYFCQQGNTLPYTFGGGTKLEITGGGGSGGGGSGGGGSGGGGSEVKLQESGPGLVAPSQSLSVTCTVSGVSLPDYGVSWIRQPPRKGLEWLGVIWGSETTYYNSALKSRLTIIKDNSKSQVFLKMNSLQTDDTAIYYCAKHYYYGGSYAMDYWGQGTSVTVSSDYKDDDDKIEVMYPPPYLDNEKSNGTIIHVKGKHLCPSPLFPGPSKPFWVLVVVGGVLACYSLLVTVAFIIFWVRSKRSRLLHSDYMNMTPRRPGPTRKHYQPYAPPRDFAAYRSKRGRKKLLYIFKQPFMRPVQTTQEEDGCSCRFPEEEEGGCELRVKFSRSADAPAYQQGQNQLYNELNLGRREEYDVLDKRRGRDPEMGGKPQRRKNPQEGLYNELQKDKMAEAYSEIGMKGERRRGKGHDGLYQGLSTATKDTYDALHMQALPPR

[4] = molecular target: T3, Human BCMA Protein, Fc Tag (R&D Systems, Cat#193-BC-050) (human, UniProt Q02223 1-54); experiment: ELISA, plate-bound Human BCMA-Fc (FIG. 66A), anti-HIS-HRP
T3 construct: Bought reagent; also called Human BCMA-Fc; BCMA-Fc
T3 sequence (looked up): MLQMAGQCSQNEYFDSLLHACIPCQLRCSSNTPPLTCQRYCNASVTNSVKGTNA

[5] = molecular target: T1, CD20 on stable transfectant line …; experiment: flow cytometry, 293-CD20 cells, FMC63-PE

| Binder | binding result [4] | other results |
| --- | --- | --- |
| CD19-ECD-Leu16 scFv (VH/VL) (construct #63) (other, C-terminal His tag; also called CD19 full-length extracellular domain-anti-CD20 Leu16 scFv VH-VL-His fusion protein) PEEPLVVKVEEGDNAVLQCLKGTSDGPTQQLTWSRESPLKPFLKLSLGLPGLGIHMRPLAIWLFIFNVSQQMGGFYLCQPGPPSEKAWQPGWTVNVEGSGELFRWNVSDLGGLGCGLKNRSSEGPSSPSGKLMSPKLYVWAKDRPEIWEGEPPCLPPRDSLNQSLSQDLTMAPGSTLWLSCGVPPDSVSRGPLSWTHVHPKGPKSLLSLELKDDRPARDMWVMETGLLLPRATAQDAGKYYCHRGNLTMSFHLEITARPVLWHWLLRTGGWKGGGGSGGGGSGGGGSGGGGSEVQLQQSGAELVKPGASVKMSCKASGYTFTSYNMHWVKQTPGQGLEWIGAIYPGNGDTSYNQKFKGKATLTADKSSSTAYMQLSSLTSEDSADYYCARSNYYGSSYWFFDVWGAGTTVTVSSGSTSGGGSGGGSGGGGSSDIVLTQSPAILSASPGEKVTMTCRASSSVNYMDWYQKKPGSSPKPWIYATSNLASGVPARFSGSGSGTSYSLTISRVEAEDAATYYCQQWSFNPPTFGGGTKLEIKHHHHHH | – | binding result [1]: binds |
| CD19-D1+2-Leu16 scFv (VH/VL) (construct #83) (other, C-terminal His tag) PEEPLVVKVEEGDNAVLQCLKGTSDGPTQQLTWSRESPLKPFLKLSLGLPGLGIHMRPLAIWLFIFNVSQQMGGFYLCQPGPPSEKAWQPGWTVNVEGSGELFRWNVSDLGGLGCGLKNRSSEGPSSPSGKLMSPKLYVWAKDRPEIWEGEPPCLPPRDSLNQSLSQDLTMAPGSTLWLSCGVPPDSVSRGPLSWTHVHPKGPKSLLSLELKDDRPARDMWVMETGLLLPRATAQDAGKYYCHRGNLTMSFHLEITARPGGGGSGGGGSGGGGSGGGGSMAQVKLQESGAELVKPGASVKMSCKASGYTFTSYNMHWVKQTPGQGLEWIGAIYPGNGDTSYNQKFKGKATLTADKSSSTAYMQLSSLTSEDSADYYCARSNYYGSSYWFFDVWGQGTTVTVSSGGGGSGGGGSGGGGSDIELTQSPTILSASPGEKVTMTCRASSSVNYMDWYQKKPGSSPKPWIYATSNLASGVPARFSGSGSGTSYSLTISRVEAEDAATYYCQQWSFNPPTFGGGTKLEIKRAAAHHHHHH | – | binding result [2]: binds |
| anti-FMC63 antibody 136.20.1 (constructs #151/#152) (antibody, V domains shown, supernatant or purified protein (5 ug/ml); also called anti-FMC63 (anti-Id) antibody; secreted anti-FMC63 antibody) VH: EVKLVESGGGLVQPGGSLKLSCAASGFDFSRYWMSWVRQAPGKGLEWIGEINLDSSTINYTPSLKDKFIISRDNAKNTLYLQMSKVRSEDTALYYCARRYDAMDYWGQGTSVTVSS VL: not shown | – | binding result [3]: binds |
| C11D5.3 scFv (VL/VH) (construct #89) (scFv, C-terminal His tag) scFv: DIVLTQSPPSLAMSLGKRATISCRASESVTILGSHLIHWYQQKPGQPPTLLIQLASNVQTGVPARFSGSGSRTDFTLTIDPVEEDDVAVYYCLQSRTIPRTFGGGTKLEIKGSTSGSGKPGSGEGSTKGQIQLVQSGPELKKPGETVKISCKASGYTFTDYSINWVKRAPGKGLKWMGWINTETREPAYAYDFRGRFAFSLETSASTAYLQINNLKYEDTATYFCALDYSYAMDYWGQGTSVTVSSGGGGSGGGGSGGGGSHHHHHH | binds | – |
| C11D5.3 scFv (VH/VL) (construct #90) (scFv, C-terminal His tag) scFv: QIQLVQSGPELKKPGETVKISCKASGYTFTDYSINWVKRAPGKGLKWMGWINTETREPAYAYDFRGRFAFSLETSASTAYLQINNLKYEDTATYFCALDYSYAMDYWGQGTSVTVSSGSTSGSGKPGSGEGSTKGDIVLTQSPPSLAMSLGKRATISCRASESVTILGSHLIHWYQQKPGQPPTLLIQLASNVQTGVPARFSGSGSRTDFTLTIDPVEEDDVAVYYCLQSRTIPRTFGGGTKLEIKGGGGSGGGGSGGGGSHHHHHH | binds | – |
| CD19-D1+2-C11D5.3 scFv (VL/VH) (construct #91) (other, C-terminal His tag) PEEPLVVKVEEGDNAVLQCLKGTSDGPTQQLTWSRESPLKPFLKLSLGLPGLGIHMRPLAIWLFIFNVSQQMGGFYLCQPGPPSEKAWQPGWTVNVEGSGELFRWNVSDLGGLGCGLKNRSSEGPSSPSGKLMSPKLYVWAKDRPEIWEGEPPCLPPRDSLNQSLSQDLTMAPGSTLWLSCGVPPDSVSRGPLSWTHVHPKGPKSLLSLELKDDRPARDMWVMETGLLLPRATAQDAGKYYCHRGNLTMSFHLEITARPGGGGSGGGGSGGGGSGGGGSDIVLTQSPPSLAMSLGKRATISCRASESVTILGSHLIHWYQQKPGQPPTLLIQLASNVQTGVPARFSGSGSRTDFTLTIDPVEEDDVAVYYCLQSRTIPRTFGGGTKLEIKGSTSGSGKPGSGEGSTKGQIQLVQSGPELKKPGETVKISCKASGYTFTDYSINWVKRAPGKGLKWMGWINTETREPAYAYDFRGRFAFSLETSASTAYLQINNLKYEDTATYFCALDYSYAMDYWGQGTSVTVSSGGGGSGGGGSGGGGSHHHHHH | binds | – |
| CD19-D1+2-C11D5.3 scFv (VH/VL) (construct #92) (other, C-terminal His tag) PEEPLVVKVEEGDNAVLQCLKGTSDGPTQQLTWSRESPLKPFLKLSLGLPGLGIHMRPLAIWLFIFNVSQQMGGFYLCQPGPPSEKAWQPGWTVNVEGSGELFRWNVSDLGGLGCGLKNRSSEGPSSPSGKLMSPKLYVWAKDRPEIWEGEPPCLPPRDSLNQSLSQDLTMAPGSTLWLSCGVPPDSVSRGPLSWTHVHPKGPKSLLSLELKDDRPARDMWVMETGLLLPRATAQDAGKYYCHRGNLTMSFHLEITARPGGGGSGGGGSGGGGSGGGGSQIQLVQSGPELKKPGETVKISCKASGYTFTDYSINWVKRAPGKGLKWMGWINTETREPAYAYDFRGRFAFSLETSASTAYLQINNLKYEDTATYFCALDYSYAMDYWGQGTSVTVSSGSTSGSGKPGSGEGSTKGDIVLTQSPPSLAMSLGKRATISCRASESVTILGSHLIHWYQQKPGQPPTLLIQLASNVQTGVPARFSGSGSRTDFTLTIDPVEEDDVAVYYCLQSRTIPRTFGGGTKLEIKGGGGSGGGGSGGGGSHHHHHH | binds | – |
| CD19-D1+2-Leu16 scFv (VL/VH) (construct #85) (other, C-terminal His tag) PEEPLVVKVEEGDNAVLQCLKGTSDGPTQQLTWSRESPLKPFLKLSLGLPGLGIHMRPLAIWLFIFNVSQQMGGFYLCQPGPPSEKAWQPGWTVNVEGSGELFRWNVSDLGGLGCGLKNRSSEGPSSPSGKLMSPKLYVWAKDRPEIWEGEPPCLPPRDSLNQSLSQDLTMAPGSTLWLSCGVPPDSVSRGPLSWTHVHPKGPKSLLSLELKDDRPARDMWVMETGLLLPRATAQDAGKYYCHRGNLTMSFHLEITARPGGGGSGGGGSGGGGSGGGGSDIELTQSPTILSASPGEKVTMTCRASSSVNYMDWYQKKPGSSPKPWIYATSNLASGVPARFSGSGSGTSYSLTISRVEAEDAATYYCQQWSFNPPTFGGGTKLEIKRGGGGSGGGGSGGGGSMAQVKLQESGAELVKPGASVKMSCKASGYTFTSYNMHWVKQTPGQGLEWIGAIYPGNGDTSYNQKFKGKATLTADKSSSTAYMQLSSLTSEDSADYYCARSNYYGSSYWFFDVWGQGTTVTVSSAAAHHHHHH | – | binding result [5]: no binding (tested: 200 µl) |
